How the values were obtained:
[1] = target: ZIKV prM/E (ZIKV SPH2015), E G182A (Zika virus (ZIKV SPH2015)); assay: flow cytometry on cells
[2] = target: ZIKV prM/E (ZIKV SPH2015), E G100A (Zika virus (ZIKV SPH2015)); assay: flow cytometry on cells
[3] = target: ZIKV prM/E (ZIKV SPH2015), E E162A (Zika virus (ZIKV SPH2015)); assay: flow cytometry on cells
[4] = target: ZIKV prM/E (ZIKV SPH2015), prM G59A (Zika virus (ZIKV SPH2015)); assay: flow cytometry on cells
[5] = target: T1, ZIKV prM protein of heat-denatured ZIKV-VLP (Western band) (Zika virus, Suriname Z1106033, UniProt A0A0U4DG08, strain); assay: Western blot (Wes capillary electrophoresis); 27 or 240 ng ZIKV-VLP denatured at 70°C for 5 min without reducing agent, electrophoresed, probed with 10 μg/mL MAb; conditions: both partners purified
T1 construct: subunit of m13; also called precursor membrane protein

[6] = target: T2, wild-type ZIKV prM/E (ZIKV SPH2015) (Zika virus, SPH2015, UniProt A0A0U3FSM8, strain); assay: flow cytometry on cells; conditions: one partner purified
T2 construct: also called WT prM/E; wild-type prM/E; source: HEK-293T, transfected, cells fixed and permeabilised

B1: anti-ZIKV MAb 278-11 (antibody, V domains shown)
VH: QSLEESGGGLVQPEGSLTLACTASEFDSSSNAMCWVRQAPGKGLEWIARIYSGSGTIYYANWARGRFTISKTSSTTVTLQMTSLTDADTATYFCARYNTGGFYYDLWGPGTLVTVSS
VL: ALVMTQTPASVEAAVGGTVTINCQASQRIGTNLAWYQQKPGQPPKVLIYKASTLASGVSSRFIGSGSGTDYTLTISGVECDDAATYYCQQGYSSNDADNTFGGGTEVVVK
notes: recombinant rabbit IgG; source: 293-6E cells, cotransfected, purified (MabSelect SuRe protein A)
[1]
  antibody binding reactivity (% WT): 85.9 % WT
[2]
  antibody binding reactivity (% WT): 95.1 % WT
[3]
  antibody binding reactivity (% WT): 77.8 % WT
[4]
  antibody binding reactivity (% WT): 28.5 % WT
[5]
  binding result: binds
[6]
  binding result: binds

— publication PMC9175631 (Journal of Virology, 2022)
